Test [1] has as its target T1, PR1/HLA-A*0201 on the cell surface (human).
T1 construct: also called PR1-pulsed T2 cells; PR1/HLA-A2 on HLA-A2+ AML blasts
The test can be described thus: flow cytometry, 8F4 staining of MDA-MB-231 cells after 24 h with NE. (A flow cytometer gives signals particle by particle.)
Procedure: (§1) Mean 6 SEM fold increase of the MFI of PR1/HLA-A2 versus unpulsed cells is shown from duplicate experiments. ANOVA followed by Tukey test was performed using Prism 5.0 software (*p=0.01, **p, 0.0001).

Test [2] deals with T1, PR1/HLA-A*0201 on the cell surface. The test can be described thus: flow cytometry, 8F4 staining of MDA-MB-231 cells after 24 h with P3.
Procedure: as §1
In test [3] the target is T2, recombinant PR1/HLA-A*0201 monomer (human).
T2 construct: Folded recombinant monomer; also called PR1/HLA-A2; PR-1/HLA-A2
The test can be described thus: SPR (Biacore), 8F4 immobilized/captured, soluble PR1/HLA-A*0201 as analyte.

Test [4] concerns the target T2, recombinant PR1/HLA-A*0201 monomer. The test can be described thus: SPR (BIAcore 3000), antibody captured on anti-mouse surface, peptide/HLA-A2 as analyte, 25 C; inset table, column KD (the text and the box under the plot round it to 9.9 nM).
Procedure: The test antibodies were captured onto anti-mouse antibody-coated surfaces. The analyte, peptide/HLA-A2, was diluted to 100 nM and tested in duplicate for binding to the antibody-coated surfaces. The analysis was performed at 25 C using PBS, 0.005% Tween-20, 0.1 mg/ml BSA, pH 7.4 as the running buffer.
Test [5] shares this target. Description: ELISA, biotinylated PR1/HLA-A2 on streptavidin, anti-human kappa HRP.
Procedure: An ELISA plate was first coated with 100 μl/well of 5 μg/ml streptavidin (Jackson ImmunoResearch, West Grove, Pa.) in PBS. After washing wells with Wash Buffer (PBS containing 0.05% Tween 20) and blocking with Block Buffer, 50 μl/well of 2 μg/ml biotinylated PR1/HLA-A2, which had been provided by Dr. Molldrem, was added. After 30 min incubation at room temperature, the ELISA plate was washed with Wash Buffer. […] After incubating the ELISA plate for 1 hr at room temperature and washing with Wash Buffer, bound antibodies were detected using 100 μl/well of 1/2,000-diluted HRP-conjugated goat anti-human kappa chain polyclonal antibody. After incubating for 30 min at room temperature and washing with Wash Buffer, color development was performed by adding 100 μl/well of ABTS substrate. Color development was stopped by adding 100 μl/well of 2% oxalic acid. Absorbance was read at 405 nm.
Test [6] has the same target. The test can be described thus: ELISA on PR1/HLA-A2 monomer-coated plate, anti-human detection [panel B].
Source text: (§2) The inventors used recombinant PR1/HLA-A2 monomer-coated plates to capture the antibody, and anti-human antibodies were used in a colorimetric assay to determine the bound fraction by optical density (OD).
For test [7] the target is unchanged. Description: ELISA on recombinant PR1/HLA-A2 monomer-coated plates; Hu8F4-2 (Hu2). On the technique in general: ELISA stands for enzyme-linked immunosorbent assay.
Source text: as §2
Test [8] shares this target. The test can be described thus: ELISA on recombinant PR1/HLA-A2 monomer-coated plates; Hu8F4-1 (Hu1).
Source text: as §2

B1: 8F4 mouse monoclonal antibody (IgG2a-kappa, anti-PR1/HLA-A*0201) (antibody, V domains shown)
VH: EVQLVESGGDLVKPGGSLKLSCAASGFTFSGYGMSWVRQTPDKRLEWVATISSGGSYTYYPDSVKGRFTISRDNAKNTLYLQMSSLKSEDTAMYYCARHEGGYYGSSPAWFVYWGQGTLVTLSA
VL: DIVMTQSHKFMSTSVGDRVSITCKASQDVSTAVAWYQQKPGQSPKLLIYSTSYRYTGVPDRFTGSGSGTVFTFTINSVQAEDLAVYYCQQHFITPPTFGGGTKLEIK
modifications: In the flow cytometry and confocal assays the antibody carried an Alexa Fluor 647 label; the letters do not carry it.
notes: Mouse IgG2a-kappa from hybridoma; Used with Alexa-647 label in flow cytometry and confocal assays; also called mouse 8F4; 8F4-4
In general, Kd refers to a measure of binding affinity in units of concentration. B1: the “fold increase in PR1/HLA-A2 (8F4 MFI) versus unpulsed cells” value worked out at 2.5 fold in test [1] and 3 fold in test [2]. The Kd in test [3] came out at 9.9 nM; in test [4] it was 9.85 nM.

B2: Ch8F4 chimeric 8F4 IgG1/kappa antibody (antibody, V domains shown)
VH: EVQLVESGGDLVKPGGSLKLSCAASGFTFSGYGMSWVRQTPDKRLEWVATISSGGSYTYYPDSVKGRFTISRDNAKNTLYLQMSSLKSEDTAMYYCARHEGGYYGSSPAWFVYWGQGTLVTLSA
VL: DIVMTQSHKFMSTSVGDRVSITCKASQDVSTAVAWYQQKPGQSPKLLIYSTSYRYTGVPDRFTGSGSGTVFTFTINSVQAEDLAVYYCQQHFITPPTFGGGTKLEIKR
notes: Mouse 8F4 VH/VL on human gamma-1 and kappa constant regions
The term EC50 denotes the concentration at which the effect is half-maximal. As usually defined, the EC50 (read off the curve) is the concentration that produces a half-maximal response. As to B2, in test [5], the EC50 is 0.054 µg/mL. In addition, the “EC50 (read off the curve)” value in test [6] was around 8 ng/mL.

B3: Hu8F4-2 humanized 8F4 IgG1/kappa antibody (Hu8F4 VH and VL2) (antibody)
heavy: not shown
light: DIQMTQSPSSLSASVGDRVTITCKASQDVSTAVAWYQQKPGKAPKLLIYSTSYRYTGVPSRFSGSGSGTDFTFTISSLQPEDIATYYCQQHFITPPTFGGGTKVEIKRTVAAPSVFIFPPSDEQLKSGTASVVCLLNNFYPREAKVQWKVDNALQSGNSQESVTEQDSKDSTYSLSSTLTLSKADYEKHKVYACEVTHQGLSSPVTKSFNRGEC
notes: VL2 has Asp instead of Val at position 70 of VL1; also called Hu2-8F4; Hu2
For the molecule B3, the Kd in test [7] is 7.8 nM. In addition, the EC50 in test [5] turned out to be 0.07 µg/mL. In test [6], the “EC50 (read off the curve)” value was around 8 ng/mL.

B4: Hu8F4-2-AA humanized 8F4 IgG1-AA/kappa antibody (antibody)
heavy: not shown
light: DIQMTQSPSSLSASVGDRVTITCKASQDVSTAVAWYQQKPGKAPKLLIYSTSYRYTGVPSRFSGSGSGTDFTFTISSLQPEDIATYYCQQHFITPPTFGGGTKVEIKRTVAAPSVFIFPPSDEQLKSGTASVVCLLNNFYPREAKVQWKVDNALQSGNSQESVTEQDSKDSTYSLSSTLTLSKADYEKHKVYACEVTHQGLSSPVTKSFNRGEC
notes: Hu8F4 VH and VL2 on human IgG1 with Leu234Ala and Leu235Ala (Eu numbering); Signal peptide may be included
Consider B4, for which, in test [5], the EC50 was 0.07 µg/mL.

B5: Hu8F4-1 humanized 8F4 IgG1/kappa antibody (Hu8F4 VH and VL1) (antibody, V domains shown)
VH: EVQLVESGGGLVQPGGSLRLSCAASGFTFSGYGMSWVRQAPGKGLEWVATISSGGSYTYYPDSVKGRFTISRDNAKNSLYLQMNSLRAEDTAVYYCARHEGGYYGSSPAWFVYWGQGTMVTVSS
VL: DIQMTQSPSSLSASVGDRVTITCKASQDVSTAVAWYQQKPGKAPKLLIYSTSYRYTGVPSRFSGSGSGTVFTFTISSLQPEDIATYYCQQHFITPPTFGGGTKVEIKR
notes: Human IgG1/kappa; also called Hu1-8F4; Hu1
Consider B5, for which the Kd in test [8] worked out at 7.7 nM. In addition, the EC50 in test [5] is 0.05 µg/mL. Also, in test [6], the “EC50 (read off the curve)” value is around 8 ng/mL.
